B1: cLgH2 (chimeric light chain with CDR-grafted heavy chain gH2; plasmids pAL52 and pAL41) (antibody, V domains shown)
VH: QIQLVQSGAEVKKPGSSVKVSCKASGYTFTDYYINWMRQAPGQGLEWIGWIDPGSGNTKYNEKFKGRATLTVDTSTNTAYMELSSLRSEDTAFYFCAREKTTYYYAMDYWGQGTLVTVSS
VL: DIVMTQAAPSVPVTPGESLSISCRSSKSLLHSNGDTFLYWFLQRPGQSPQLLIYRMSNLASGVPDRFSGSGSGTAFTLRVSRVEAEDVGVYYCMQHLEYPFTFGAGTKLELKR
B2: gL1cH (CDR-grafted light chain gL1 with chimeric heavy chain; plasmids pAL47 and pHMC33) (antibody, V domains shown)
VH: QIQLQQSGPELVKPGASVKISCKASGYTFTDYYINWMKQKPGQGLEWIGWIDPGSGNTKYNEKFKGKATLTVDTSSSTAYMQLSSLTSEDTAVYFCAREKTTYYYAMDYWGQGTSVTVS
VL: DIQMTQSPSTLSASVGDRVTITCRSSKSLLHSNGDTFLYWFQQKPGKAPKLLMYRMSNLASGVPSRFSGSGSGTEFTLTISSLQPDDFATYYCMQHLEYPFTFGQGTKVEVKR

Experiments:
[1] = target: T1, polymorphic epithelial mucin (PEM) (human, UniProt P15941); experiment: direct binding ELISA, PEM-coated microwell plates, culture supernatant
[2] = target: T1, polymorphic epithelial mucin (PEM); experiment: order of binding activity from all the direct binding ELISA assays on PEM

Row | Binder | binding result [1] | binding result [2]
1 | B1 | binds | 
2 | B2 |  | binds

Source: patent US6015562, “Targeted forms of methyltrithio antitumor agents” (American Cyanamid Company, dated 2000)
